Test results published in patent US20120258099A1.

Biological target: RhoA in NIH3T3 cells (UniProt Q9QUI0)
Assay: cell-based or functional assay

Chain of RhoA in NIH3T3 cells (Q9QUI0 1-190 limits assumed): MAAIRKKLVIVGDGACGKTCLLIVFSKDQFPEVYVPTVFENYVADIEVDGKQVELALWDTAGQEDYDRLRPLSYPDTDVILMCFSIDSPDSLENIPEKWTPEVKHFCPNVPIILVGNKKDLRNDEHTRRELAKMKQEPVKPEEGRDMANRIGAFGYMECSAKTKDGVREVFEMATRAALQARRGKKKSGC

RhoA activation in intact cells, pull-down of RhoA-GTP with GST-RBD (fold over control): 8
Substance: GFP-Tgat (from UniProt P42212 1-238; O75962 1862-2101) (enzyme)
